From publication PMC3209416

Substrate: CCCCC(O)CC(=O)C(=O)O
Assay: purified protein
Format: biochemical, Thermotoga maritima
Details: retro-aldol cleavage, HEPES 100 mM pH 7.5, 34 °C

B1: T. maritima KDPG aldolase (wt-TMA; TM KDPG aldolase) (Thermotoga maritima MSB8; N150I) (protein)
chain: MKMEELFKKHKIVAVLRANSVEEAKEKALAVFEGGVHLIEITFTVPDADTVIKELSFLKEKGAIIGAGTVTSVEQCRKAVESGAEFIVSPHLDEEISQFCKEKGVFYMPGVMTPTELVKAMKLGHTILKLFPGEVVGPQFVKAMKGPFPIVKFVPTGGVNLDNVCEWFKAGVLAVGVGSALVKGTPDEVREKAKAFVEKIRGCTE
Mutant TM 8
  Km: 49 ± 19 mM
  kcat: 1.2 ± 0.3 s⁻¹
  kcat/Km: 25 ± 5 M⁻¹ s⁻¹

B2: T. maritima KDPG aldolase (wt-TMA; TM KDPG aldolase) (Thermotoga maritima MSB8; G34R/R190I/V172A) (protein)
chain: MKMEELFKKHKIVAVLRANSVEEAKEKALAVFERGVHLIEITFTVPDADTVIKELSFLKEKGAIIGAGTVTSVEQCRKAVESGAEFIVSPHLDEEISQFCKEKGVFYMPGVMTPTELVKAMKLGHTILKLFPGEVVGPQFVKAMKGPFPNVKFVPTGGVNLDNVCEWFKAGALAVGVGSALVKGTPDEVIEKAKAFVEKIRGCTE
Mutant TM 1
  Km: 9 ± 2 mM
  kcat: 0.07 ± 0.01 s⁻¹
  kcat/Km: 9.3 ± 1.8 M⁻¹ s⁻¹

B3: T. maritima KDPG aldolase (wt-TMA; TM KDPG aldolase) (Thermotoga maritima MSB8; G83E/K9T) (protein)
chain: MKMEELFKTHKIVAVLRANSVEEAKEKALAVFEGGVHLIEITFTVPDADTVIKELSFLKEKGAIIGAGTVTSVEQCRKAVESEAEFIVSPHLDEEISQFCKEKGVFYMPGVMTPTELVKAMKLGHTILKLFPGEVVGPQFVKAMKGPFPNVKFVPTGGVNLDNVCEWFKAGVLAVGVGSALVKGTPDEVREKAKAFVEKIRGCTE
Mutant TM 2
  Km: 90 ± 20 mM
  kcat: 0.5 ± 0.1 s⁻¹
  kcat/Km: 5.5 ± 1 M⁻¹ s⁻¹

B4: T. maritima KDPG aldolase (wt-TMA; TM KDPG aldolase) (Thermotoga maritima MSB8; V136M) (protein)
chain: MKMEELFKKHKIVAVLRANSVEEAKEKALAVFEGGVHLIEITFTVPDADTVIKELSFLKEKGAIIGAGTVTSVEQCRKAVESGAEFIVSPHLDEEISQFCKEKGVFYMPGVMTPTELVKAMKLGHTILKLFPGEVMGPQFVKAMKGPFPNVKFVPTGGVNLDNVCEWFKAGVLAVGVGSALVKGTPDEVREKAKAFVEKIRGCTE
Mutant TM 4
  Km: 23 ± 4 mM
  kcat: 0.36 ± 0.02 s⁻¹
  kcat/Km: 16 ± 2 M⁻¹ s⁻¹

B5: T. maritima KDPG aldolase (wt-TMA; TM KDPG aldolase) (Thermotoga maritima MSB8; I52F/T185A/V135M) (protein)
chain: MKMEELFKKHKIVAVLRANSVEEAKEKALAVFEGGVHLIEITFTVPDADTVFKELSFLKEKGAIIGAGTVTSVEQCRKAVESGAEFIVSPHLDEEISQFCKEKGVFYMPGVMTPTELVKAMKLGHTILKLFPGEMVGPQFVKAMKGPFPNVKFVPTGGVNLDNVCEWFKAGVLAVGVGSALVKGAPDEVREKAKAFVEKIRGCTE
Mutant TM 6
  Km: 8 ± 3 mM
  kcat: 0.13 ± 0.02 s⁻¹
  kcat/Km: 17 ± 6 M⁻¹ s⁻¹

B6: T. maritima KDPG aldolase (wt-TMA; TM KDPG aldolase) (Thermotoga maritima MSB8; A30V) (protein)
chain: MKMEELFKKHKIVAVLRANSVEEAKEKALVVFEGGVHLIEITFTVPDADTVIKELSFLKEKGAIIGAGTVTSVEQCRKAVESGAEFIVSPHLDEEISQFCKEKGVFYMPGVMTPTELVKAMKLGHTILKLFPGEVVGPQFVKAMKGPFPNVKFVPTGGVNLDNVCEWFKAGVLAVGVGSALVKGTPDEVREKAKAFVEKIRGCTE
Mutant TM 5
  Km: 14 ± 5 mM
  kcat: 0.75 ± 0.1 s⁻¹
  kcat/Km: 54 ± 10 M⁻¹ s⁻¹
